Data on eleven molecules can be found in patent publication EP4667483A1 (JCR Pharmaceuticals Co., Ltd., dated 2024).

Bridge positions count the residues as written; N and C are the ends. Square brackets hold non-standard residues; d marks the D form. Ends that are not written are not given here. NMePhe(4-COOH) = CN[C@@H](Cc1ccc(C(=O)O)cc1)C(=O)O; NMePhe(3-Cl) = CN[C@@H](Cc1cccc(Cl)c1)C(=O)O; 3Pal(6-NH2) = Nc1ccc(C[C@H](N)C(=O)O)cn1; NMeW = CN[C@@H](Cc1c[nH]c2ccccc12)C(=O)O; NMeY = CN[C@@H](Cc1ccc(O)cc1)C(=O)O; Nva(3-Et) = CCC(CC)[C@H](N)C(=O)O; NMeF = CN[C@@H](Cc1ccccc1)C(=O)O

The target of assay [1] is T1, human transferrin receptor (hTfR) (human, UniProt P02786 89-760).
T1 construct: Recombinant hTfR; at pH 7.4 captured on the chip by an anti-His tag antibody, at pH 6.0 immobilized on an NTA chip, so it carries a His tag; also called human TfR; TfR1
Put plainly: SPR (Biacore T200), pH 6.0, hTfR on chip.

Assay [2] deals with T1, human transferrin receptor (hTfR). The assay is described as follows: SPR (Biacore T200), pH 7.4, hTfR on chip.
Assay [3] shares this target. The assay is described as follows: SPR, koff at pH 6.0 over koff at pH 7.4.
For assay [4] the target is unchanged. The assay is described as follows: SPR, KD at pH 6.0 over KD at pH 7.4.

T1 sequence (P02786 89-760 limits assumed): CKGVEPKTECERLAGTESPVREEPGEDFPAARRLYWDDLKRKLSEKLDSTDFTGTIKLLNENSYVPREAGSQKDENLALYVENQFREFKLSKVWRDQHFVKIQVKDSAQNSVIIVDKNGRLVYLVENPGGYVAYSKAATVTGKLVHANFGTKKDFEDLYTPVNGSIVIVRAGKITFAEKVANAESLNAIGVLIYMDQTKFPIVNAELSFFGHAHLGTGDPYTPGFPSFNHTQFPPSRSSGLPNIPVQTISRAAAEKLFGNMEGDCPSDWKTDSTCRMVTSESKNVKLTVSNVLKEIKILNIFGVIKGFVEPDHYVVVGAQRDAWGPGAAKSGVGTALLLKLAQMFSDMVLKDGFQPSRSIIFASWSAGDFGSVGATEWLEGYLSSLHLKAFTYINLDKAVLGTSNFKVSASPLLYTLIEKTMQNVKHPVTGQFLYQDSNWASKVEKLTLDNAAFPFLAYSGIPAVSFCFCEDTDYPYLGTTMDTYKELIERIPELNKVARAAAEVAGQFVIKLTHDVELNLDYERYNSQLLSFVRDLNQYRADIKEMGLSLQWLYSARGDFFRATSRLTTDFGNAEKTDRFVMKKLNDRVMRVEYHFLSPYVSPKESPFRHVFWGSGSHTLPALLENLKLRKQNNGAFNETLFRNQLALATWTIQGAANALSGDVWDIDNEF

B1: 894_0601 (peptide)
peptide: AVXVWNXYIIKRYXC
modifications: not fully specified; as printed: A-V-MeF-V-W-N-3Py6NH2-Y-I-I-K-R-Y-MeY-C; linker PEG4c; cyclic (ClAc-Ala1 thioether to Cys15)
Take B1: the Kd was 17.4 nM in assay [1] and 5.3 nM in assay [2]. In assay [3], the “dependency koff pH6.0/7.4” value stood at 8.89. Also, the “dependency KD pH6.0/7.4” value in assay [4] is 3.28.

B2: 894_0603 (peptide)
peptide: {CH2CO}-AV[NMeF]VWN[3Pal(6-NH2)]YIIKRY[NMePhe(4-COOH)]C
modifications: thioether N-15; not fully specified (C-terminus)
With B2, the Kd stood at 35 nM in assay [1] and 7.31 nM in assay [2]. Further, the “dependency koff pH6.0/7.4” value in assay [3] worked out at 11.3. In assay [4], the “dependency KD pH6.0/7.4” value was 4.79.

B3: 894_0602 (peptide)
peptide: AVXVXNXYIIKRYXC
modifications: not fully specified; as printed: A-V-MeF-V-MeW-N-3Py6NH2-Y-I-I-K-R-Y-MeY-C; linker PEG4c; cyclic (ClAc-Ala1 thioether to Cys15)
For B3, the Kd is 18.9 nM in assay [1] and 6.37 nM in assay [2]. The “dependency koff pH6.0/7.4” value in assay [3] was 6.5. The “dependency KD pH6.0/7.4” value in assay [4] was determined as 2.97.

B4: 894_0619 (peptide)
peptide: {CH2CO}-AV[NMeF]V[NMeW]N[3Pal(6-NH2)]YI[code s]KRY[NMeY]C
modifications: thioether N-15; also: linker PEG4c attached, place not given here
notes: Position 10 is printed as lower-case 's'
For the molecule B4, the Kd came to 126 nM in assay [1] and 27.6 nM in assay [2]. For the same molecule, the “dependency koff pH6.0/7.4” value in assay [3] is 12.2. Besides, the “dependency KD pH6.0/7.4” value in assay [4] came out at 4.57.

B5: 894_0620 (peptide)
peptide: {CH2CO}-AV[NMePhe(3-Cl)]V[NMeW]N[3Pal(6-NH2)]YI[code s]KRY[NMeY]C
modifications: thioether N-15; also: linker PEG4c attached, place not given here
notes: as for B4
B5: the Kd in assay [1] turned out to be 16.2 nM; in assay [2], 4.97 nM. Besides, in assay [3], the “dependency koff pH6.0/7.4” value amounted to 12.5. Besides, in assay [4], the “dependency KD pH6.0/7.4” value came out at 3.26.

B6: 894_0607 (peptide)
peptide: AVXVXNYYIIKRXXC
modifications: not fully specified; as printed: A-V-MeF3C-V-W1Me-N-Y-Y-I-I-K-R-4Py-MeY-C; linker PEG4c; cyclic (ClAc-Ala1 thioether to Cys15)
As to B6, the Kd is 2.04 nM in assay [1] and 0.546 nM in assay [2]. Further, in assay [3], the “dependency koff pH6.0/7.4” value was 7.49. The “dependency KD pH6.0/7.4” value in assay [4] is 3.74.

B7: 894_0604 (peptide)
peptide: {CH2CO}-AV[NMeF]V[NMeW]N[3Pal(6-NH2)]YIIKRY[NMePhe(4-COOH)]C
modifications: thioether N-15; not fully specified (C-terminus)
Turning to B7, the Kd worked out at 16.7 nM in assay [1] and 3.51 nM in assay [2]. The “dependency koff pH6.0/7.4” value in assay [3] was found to be 7.83. Also, the “dependency KD pH6.0/7.4” value in assay [4] was determined as 4.76.

B8: 894_0615 (peptide)
peptide: AVXVXNYYIIKRYXC
modifications: as printed: A-V-Me3Py-V-MeW-N-Y-Y-I-I-K-R-Y-MeY-C; linker PEG4c; cyclic (ClAc-Ala1 thioether to Cys15)
As for B8, the Kd in assay [1] is 15.3 nM; in assay [2], 16.6 nM. Also, in assay [3], the “dependency koff pH6.0/7.4” value stood at 2.87. Besides, the “dependency KD pH6.0/7.4” value in assay [4] turned out to be 0.92.

B9: 894_0593 (peptide)
peptide: {CH2CO}-AV[NMeF]V[NMeW]NYY[Nva(3-Et)]IKRY[NMePhe(4-COOH)]C
modifications: thioether N-15; not fully specified (C-terminus)
Take B9: the Kd in assay [1] came to 9.52 nM; in assay [2], 3.61 nM. For the same molecule, the “dependency koff pH6.0/7.4” value in assay [3] came to 3.72. Further, the “dependency KD pH6.0/7.4” value in assay [4] was 2.64.

B10: 894_0611 (peptide)
peptide: {CH2CO}-AV[NMeF]V[NMeW]NYY[Nva(3-Et)]SKRY[NMeY]C
modifications: thioether N-15; not fully specified (C-terminus)
In the case of B10, the Kd in assay [1] is 66.3 nM; in assay [2] it was 30.4 nM. The “dependency koff pH6.0/7.4” value in assay [3] was found to be 4.83. The “dependency KD pH6.0/7.4” value in assay [4] came to 2.18.

B11: 894_0612 (peptide)
peptide: {CH2CO}-AV[NMePhe(3-Cl)]V[NMeW]NYY[Nva(3-Et)]SKRY[NMeY]C
modifications: thioether N-15; not fully specified (C-terminus)
On to B11, for which the Kd in assay [1] was found to be 13.2 nM; in assay [2] it was 5.67 nM. In addition, the “dependency koff pH6.0/7.4” value in assay [3] came out at 6.71. For the same molecule, the “dependency KD pH6.0/7.4” value in assay [4] is 2.33.
